Reference: CN109734806A (ANHUI ANKE BIOTECHNOLOGY GROUP CO LTD, dated 2019)

T1: 人TIGIT (膜表达人TIGIT稳转细胞株DG44-TIGIT) (human, UniProt Q495A1 22-244)
T1 construct: whole, on cells; also called 细胞表面的TIGIT蛋白; huTIGIT
T1 sequence (looked up): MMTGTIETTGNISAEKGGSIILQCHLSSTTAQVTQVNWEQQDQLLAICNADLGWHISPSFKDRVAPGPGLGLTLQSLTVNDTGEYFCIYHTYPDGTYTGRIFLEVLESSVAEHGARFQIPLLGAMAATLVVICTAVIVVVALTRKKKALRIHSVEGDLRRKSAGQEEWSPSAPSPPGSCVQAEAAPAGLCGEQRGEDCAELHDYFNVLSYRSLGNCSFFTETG

T2: rhTIGIT-Avi-His (human, UniProt Q495A1 22-130)
T2 construct: range 22-130; Expressed in Expi 293 cells, Ni-NTA purified; also called rhTIGIT-Avi-His抗原; not shown: C-terminal Avi tag and His tag from vector pCD-Avi-His
T2 sequence (looked up): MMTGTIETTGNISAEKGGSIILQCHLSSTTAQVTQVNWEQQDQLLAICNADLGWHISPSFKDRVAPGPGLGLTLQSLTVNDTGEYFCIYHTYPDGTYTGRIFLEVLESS

T3: rhTIGIT-Avi-His-bio (human, UniProt Q495A1 22-130, biotin linked to the Avi tag by BirA)
T3 construct: range 22-130; Biotinylated form of rhTIGIT-Avi-His, captured on SA chip for SPR; also called 生物素标记的抗原rhTIGIT-Avi-His-bio; not shown: C-terminal Avi tag (biotinylated) and His tag from vector pCD-Avi-His
T3 sequence (looked up): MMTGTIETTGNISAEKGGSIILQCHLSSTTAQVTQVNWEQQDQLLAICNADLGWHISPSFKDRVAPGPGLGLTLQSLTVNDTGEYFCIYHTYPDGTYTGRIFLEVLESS


Key:
[1] = target: T1, 人TIGIT (膜表达人TIGIT稳转细胞株DG44-TIGIT); assay: FACS binding to DG44-TIGIT cells
rhTIGIT-Avi-His [2] = target: T2, rhTIGIT-Avi-His; assay: ELISA, rhTIGIT-Avi-His coated at 0.5 ug/mL, antibody titrated
[3] = target: T1, 人TIGIT (膜表达人TIGIT稳转细胞株DG44-TIGIT); assay: FACS blocking on DG44-TIGIT cells, competitor rhCD155-cFc-647 (1 ug/ml)
rhTIGIT-Avi-His [4] = target: T2, rhTIGIT-Avi-His; assay: ELISA on coated rhTIGIT-Avi-His
rhTIGIT-Avi-His-bio [5] = target: T3, rhTIGIT-Avi-His-bio; assay: SPR, KD of D1Y1A against KD of 3TB3
rhTIGIT-Avi-His-bio [6] = target: T3, rhTIGIT-Avi-His-bio; assay: SPR (Biacore T200), rhTIGIT-Avi-His-bio captured on SA chip, antibody as analyte

Binder	EC50 [1] [µg/mL]	EC50 (rhTIGIT-Avi-His [2]) [µg/mL]	IC50 [3] [µg/mL]	fold improvement against 3TB3 (ELISA) (rhTIGIT-Avi-His [4]) [fold]	fold improvement of affinity against 3TB3 (rhTIGIT-Avi-His-bio [5]) [fold]	Kd (rhTIGIT-Avi-His-bio [6]) [nM]
TDC8 (antibody, V domains shown, also called 全人源抗人TIGIT单抗TDC8) VH: DVQLQESGPGLVKPSETLSLTCTVSGGSISSKGFTWSWIRQPPGKGLEWIGQISPLDSSTSYNPSLKSRVTISVDTSKNQFSLKLSSVTAADTSVYYCARGIWTYLYGFDYWGQGTLVTVSS VL: DIVLTQSPATLSLSPGERATLSCRASQSIHAGYLAWYQQKPGQAPRLLIYWTNLRATGVPTRFSGSGSGTDFTLTISSLEPEDFAVYYCLQLMRYPPTFGQGTKLEIKR	0.0585	0.293	0.308	–	–	–
D1Y1A (antibody, V domains shown) VH: DVQLQESGPGLVKPSETLSLTCTVSGGSISYWSWIRQPPGKGLEWIGSIATSYNPSLKSRTSVDTSKNQFSLKLSSVTAADTAVYYCARSYGGNRLDYWGQGTLVTVSS VL: DIVLTQSPATLSLSPGERATLSCRASQGVRLSWYQQKPGQAPRLLIYYYRATGVPARFSGSGSGTDFTLTISSLEPEDFAVYYCLQFPTFGQGTKLEIK	–	–	–	~3	~4	0.266
TBB8 (antibody, V domains shown, also called 全人源抗人TIGIT单抗TBB8) VH: DVQLQESGPGLVKPSETLSLTCTVSGYSISTGYAWSWIRQPPGKGLEWIGSISAFGGNTYYNPSLKSRVTISVDTSKNQFSLKLSSVTAADTSVYYCARTARWIAFDYWGQGTLVTVSS VL: DIVLTQSPATLSLSPGERATLSCRASQDIGVSLNWYQQKPGQAPRLLIYWTSFRATGVPTRFSGSGSGTDFTLTISSLEPEDFAVYYCQQANGVPLFTFGQGTKLEIKR	0.096	0.28	0.563	–	–	–
5TB10 (antibody, V domains shown, also called 全人源抗人TIGIT单抗5TB10) VH: DVQLQESGPGLVKPSETLSLTCTVSGDSVSDAGVGWNWIRQPPGKGLEWIGTIVPRRGITTYNPSLKSRVTISVDTSKNQFSLKLSSVTAADTSVYYCARVTTAGFDYWGQGTLVTVSS VL: DIVLTQSPATLSLSPGERATLSCRASQDVKILLNWYQQKPGQAPRLLIYWTSDRATGVPTRFSGSGSGTDFTLTISSLEPEDFAVYYCQQHLDRLPYTFGQGTKLEIKR	0.0872	0.754	0.435	–	–	–
3TB3 (antibody, V domains shown, Parent of D1Y1A; also called 全人源抗人TIGIT单抗3TB3; 野生型3TB3) VH: DVQLQESGPGLVKPSETLSLTCTVSGGSISGGYSWSWIRQPPGKGLEWIGSIVPHRSATSYNPSLKSRVTISVDTSKNQFSLKLSSVTAADTSVYYCARSYGGNRLDYWGQGTLVTVSS VL: DIVLTQSPATLSLSPGERATLSCRASQGVGIRLSWYQQKPGQAPRLLIYYTAYRATGVPTRFSGSGSGTDFTLTISSLEPEDFAVYYCLQTFGDPYTFGQGTKLEIKR	0.0589	0.0307	0.212	–	–	1.13
